Assay results published in patent US20200299389A1 (AP BIOSCIENCES, published 2020).

Key:
[1] = target: recombinant PD-L1 protein (UniProt Q9NZQ7 19-238, limits assumed); assay: direct ELISA on coated recombinant PD-L1, anti-human F(ab')2-HRP detection
murine PD-L1 = target: T1, murine PD-L1 (murine, UniProt Q9EP73 19-238, limits assumed); assay: not described
T1 construct: also called rodent PD-L1
T1 sequence (Q9EP73 19-238 limits assumed): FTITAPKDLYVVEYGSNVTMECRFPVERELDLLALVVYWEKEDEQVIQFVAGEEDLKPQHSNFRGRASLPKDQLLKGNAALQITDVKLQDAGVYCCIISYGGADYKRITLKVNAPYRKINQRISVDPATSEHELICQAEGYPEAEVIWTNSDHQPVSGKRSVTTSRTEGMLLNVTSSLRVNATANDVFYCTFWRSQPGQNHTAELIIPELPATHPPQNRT

Chain of recombinant PD-L1 protein (Q9NZQ7 19-238 limits assumed): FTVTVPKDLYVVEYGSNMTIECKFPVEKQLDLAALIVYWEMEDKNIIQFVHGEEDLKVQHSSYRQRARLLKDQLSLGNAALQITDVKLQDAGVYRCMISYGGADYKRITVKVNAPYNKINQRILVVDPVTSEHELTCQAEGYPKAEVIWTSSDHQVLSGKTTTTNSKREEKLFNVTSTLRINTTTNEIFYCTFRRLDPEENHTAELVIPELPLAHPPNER

B1: anti-PD-L1 antibody clone 6 (antibody, V domains shown)
VH: QVQLVQSGAEVKKPGSSVKVSCKASGGTFRRYSISWVRQAPGQGLEWMGGIIPVFGAAKYAQKFQGRVTITADEFTSTAYMELSSLTSEDTAVYYCALSGDSDAFDIWGQGTMVTVSS
VL: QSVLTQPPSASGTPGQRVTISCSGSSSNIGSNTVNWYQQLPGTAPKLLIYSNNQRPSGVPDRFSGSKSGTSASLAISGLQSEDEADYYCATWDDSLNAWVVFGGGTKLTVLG
notes: also called PD-L1-Clone 6; anti-PD-L1 clone 6 antibody
EC50 [1]: 0.1 nM | binding result (murine PD-L1): no binding
